This note sets out measurements from US20200291444A1, “Macrocyclisation Tags” (Oxford University Innovation LTD, priority 2017, published 2020).

The target in assay [1] is T1, GmPOPB_S577A (Galerina marginata), H2E7Q8.
T1 chain: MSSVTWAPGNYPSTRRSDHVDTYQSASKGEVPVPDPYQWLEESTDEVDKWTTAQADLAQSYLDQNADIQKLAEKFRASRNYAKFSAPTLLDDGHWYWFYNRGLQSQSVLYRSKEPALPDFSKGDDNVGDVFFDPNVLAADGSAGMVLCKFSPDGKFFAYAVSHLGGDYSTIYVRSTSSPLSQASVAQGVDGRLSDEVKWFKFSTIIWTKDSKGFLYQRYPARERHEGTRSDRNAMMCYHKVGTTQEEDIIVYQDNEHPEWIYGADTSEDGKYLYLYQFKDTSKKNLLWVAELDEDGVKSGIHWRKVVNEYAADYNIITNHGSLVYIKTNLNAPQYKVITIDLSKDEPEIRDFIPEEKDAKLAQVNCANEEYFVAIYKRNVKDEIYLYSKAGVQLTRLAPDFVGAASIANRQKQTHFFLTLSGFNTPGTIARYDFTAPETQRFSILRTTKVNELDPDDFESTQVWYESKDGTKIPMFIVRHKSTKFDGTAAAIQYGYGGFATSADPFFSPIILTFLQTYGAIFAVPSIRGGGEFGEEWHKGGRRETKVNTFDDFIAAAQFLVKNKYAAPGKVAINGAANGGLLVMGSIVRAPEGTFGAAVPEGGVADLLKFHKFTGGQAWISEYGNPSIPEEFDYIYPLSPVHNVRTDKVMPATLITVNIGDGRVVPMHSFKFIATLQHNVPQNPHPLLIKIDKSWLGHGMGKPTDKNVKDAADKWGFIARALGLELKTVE
Kind of assay: ITC, 20 C, single-site model. (In general: In ITC the heat of successive injections is recorded.)

In assay [2] the target is T1, GmPOPB_S577A (Galerina marginata), …. Kind of assay: ITC, peptide titrated into GmPOPB_S577A, 20 C.
For assay [3] the target is unchanged. Kind of assay: ITC.

What is called Kd is the equilibrium constant for the complex coming apart. A high value points to weaker binding. On to WTAEHVDQTLASGNDIC (modifications not checked) [recognition sequence (17mer) …], for which the Kd in assay [1] came out at 0.43 µM.

For IWGIGCNPWTAEHV (modifications not checked) [14mer truncated substrate], the Kd in assay [2] turned out to be 9.5 µM.

As to IWGIGCNPWT (modifications not checked) [10mer truncated substrate], in assay [2], the dissociation constant (Kd) is 83 µM.

In turn, TLASGNDIC (modifications not checked) returned a Kd in assay [2] of 121 µM.

In turn, IWGIGCNPWTAE (modifications not checked) [12mer truncated substrate] displayed a dissociation constant Kd in assay [2] of 21 µM.

As for IWGIGCNPWTAEH (modifications not checked) [13mer truncated substrate], the dissociation constant Kd in assay [2] stood at 2.4 µM. Besides, in assay [3], the fold difference in affinity against the 35mer was found to be 20 fold and the fold reduction in binding against the 35mer worked out at 10 fold.

Turning to VDQTLASGNDIC (modifications not checked), in assay [2], the equilibrium dissociation constant (Kd) amounted to 5 µM. In assay [3], the fold reduction of binding affinity against the 17mer recognition sequence was found to be 20 fold.

For the molecule IWGIGCNPWTA (modifications not checked) [11mer truncated substrate], the Kd in assay [2] turned out to be 39 µM.
